In US20070224198A1 (GlaxoSmithKline, published 2007):

T1: Plasma VII (UniProt P08709 61-466)
T1 construct: also called Factor VII
T1 sequence (looked up): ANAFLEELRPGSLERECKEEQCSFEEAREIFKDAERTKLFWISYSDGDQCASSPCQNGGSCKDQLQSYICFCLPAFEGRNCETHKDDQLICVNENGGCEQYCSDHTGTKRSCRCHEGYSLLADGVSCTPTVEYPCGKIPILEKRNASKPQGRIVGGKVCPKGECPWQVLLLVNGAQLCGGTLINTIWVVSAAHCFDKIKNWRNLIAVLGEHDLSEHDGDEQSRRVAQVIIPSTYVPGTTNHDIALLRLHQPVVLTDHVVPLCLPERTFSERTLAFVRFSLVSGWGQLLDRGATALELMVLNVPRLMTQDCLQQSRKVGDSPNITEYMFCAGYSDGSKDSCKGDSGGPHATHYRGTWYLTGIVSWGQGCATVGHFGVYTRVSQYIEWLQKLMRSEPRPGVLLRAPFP

B1: humanized anti-human Factor IX monoclonal antibody SB 249417 (antibody, V domains shown)
VH: QVQLVQSGSELKKPGASVKVSCKASGYTFTNYGMNWVRQAPGQGLKWMGWINTRNGKSTYVDDFKGRFVFSLDSSVSTAYLQISSLKADDTAVYYCTREGNMDGYFPFTYWGQGTLVTVSS
VL: QIVLTQSPSSLSASVGDRVTITCRASSSVNYMHWYQQKPGKAPKPWIYATSNLASGVPSRFSGSGSGTDYTFTISSLQPEDIATYYCQQWSINPRTFGQGTKVEIKR
notes: also called F9HZHC 1-1 / F9HZLC 2-0
B2: humanized anti-human Factor IX monoclonal antibody SB 257731 (antibody, human IgG1, V domains shown)
VH: QVQLVQSGSELKKPGASVKVSCKASGYTFTNYGMNWVRQAPGQGLKWMGWINTRNGKSTYVDDFKGRFVFSLDSSVSTAYLQISSLKADDTAVYYCTREGNMDGYFPFTYWGQGTLVTVSS
VL: QIVLTQSPATLSLSPGERATLSCRASSSVNYMHWYQQRPGQAPKPWIYATSNLASGVPARFSGSGSGTDYTLTISSLEPEDFAVYYCQQWSINPRTFGGGTKVEIK
notes: Human IgG1 and kappa constant regions from the vectors; also called F9HZHC 1-1 / F9HZLC 1-3
B3: humanized anti-human Factor IX monoclonal antibody SB 249415 (antibody, human IgG1, V domains shown)
VH: QVQLVQSGSELKKPGASVKVSCKASGYTFTNYGMNWVRQAPGQGLKWMGWINTRNGKSTYVDDFKGRFVFSLDSSVSTAYLQISSLKADDTAVYYCTREGNMDGYFPFTYWGQGTLVTVSS
VL: EIVLTQSPATLSLSPGERATLSCRASSSVNYMHWYQQRPGQAPKPWIYATSNLASGVPARFSGSGSGTDFTLTISSLEPEDFAVYYCQQWSINPRTFGGGTKVEIKR
notes: Human IgG1 and kappa constant regions from the vectors; also called F9HZHC 1-1 / F9HZLC 1-1
B4: humanized anti-human Factor IX monoclonal antibody SB 257732 (antibody, human IgG1, V domains shown)
VH: QIQLVQSGSELKKPGASVKVSCKASGYTFTNYGMNWVRQAPGQGLEWMGWINTRNGKSTYVDDFKGRFVFSLDTSVSTAYLQISSLKAEDTAVYFCTREGNMDGYFPFTYWGQGTLVTVSS
VL: QIVLTQSPSSLSASVGDRVTITCRASSSVNYMHWYQQKPGKAPKPWIYATSNLASGVPSRFSGSGSGTDYTLTISSLQPEDFATYYCQQWSINPRTFGGGTKLEIKR
notes: Human IgG1 and kappa constant regions from the vectors; also called F9HZHC 3-0 / F9HZLC 3-0
B5: humanized anti-human Factor IX monoclonal antibody SB 249413 (antibody, human IgG1, V domains shown)
VH: QVQLVQSGSELKKPGASVKVSCKASGYTFTNYGMNWVRQAPGQGLEWMGWINTRNGKSTYVDDFKGRFVFSLDTSVSTAYLQISSLKADDTAVYYCAREGNMDGYFPFTYWGQGTLVTVSS
VL: EIVLTQSPATLSLSPGERATLSCRASSSVNYMHWYQQRPGQAPRLLIYATSNLASGIPARFSGSGSGTDFTLTISSLEPEDFAVYYCQQWSINPRTFGGGTKVEIKR
notes: also called F9HZHC 1-0 / F9HZLC 1-0
B6: humanized anti-human Factor IX monoclonal antibody SB 249416 (antibody, human IgG1, V domains shown)
VH: QVQLVQSGSELKKPGASVKVSCKASGYTFTNYGMNWVRQAPGQGLKWMGWINTRNGKSTYVDDFKGRFVFSLDSSVSTAYLQISSLKADDTAVYYCTREGNMDGYFPFTYWGQGTLVTVSS
VL: EIVLTQSPATLSLSPGERATLSCRASSSVNYMHWYQQRPGQAPKPWIYATSNLASGVPARFSGSGSGTDYTLTISSLEPEDFAVYYCQQWSINPRTFGGGTKVEIKR
notes: Human IgG1 and kappa constant regions from the vectors; also called F9HZHC 1-1 / F9HZLC 1-2
B7: murine anti-Factor IX monoclonal antibody BC2 (antibody, mouse IgG2a, V domains shown)
VH: QIQLVQSGPELKKPGETVKISCKASGYTFTNYGMNWVKQAPGKGLKWMGWINTRNGKSTYVDDFKGRFAFSLESSASTANLQIDNLKDEDTATYFCTREGNMDGYFPFTYWGQGTLVTVSA
VL: QIVLSQSPAILSASPGEKVTMTCRASSSVNYMHWYQQKPGSSPKPWIYATSNLASGVPARFSGSGSGTSYSLTISRVEAEDAATYYCQQWSINPRTFGGGTKLEIKR
notes: also called BC2 mAb; BC2 Antibody
B8: mouse-human chimeric anti-Factor IX monoclonal antibody chαFIX (antibody, V domains shown)
VH: QIQLVQSGPELKKPGETVKISCKASGYTFTNYGMNWVKQAPGKGLKWMGWINTRNGKSTYVDDFKGRFAFSLESSASTANLQIDNLKDEDTATYFCTREGNMDGYFPFTYWGQGTLVTVSA
VL: QIVLSQSPAILSASPGEKVTMTCRASSSVNYMHWYQQKPGSSPKPWIYATSNLASGVPARFSGSGSGTSYSLTISRVEAEDAATYYCQQWSINPRTFGGGTKLEIK
notes: BC2 variable regions with human constant regions; also called Chf9; F9CHHC / F9CHLC

Key:
[1] = molecular target: T2, Recombinant human Factor IX (rhFIX, Genetics Institute) (human, UniProt P00740 47-461); experiment: biosensor (BIAcore)
Description: (§1) The kinetics of Factor IX binding to SB 249417 was assessed by BIAcore analysis with antibody bound to an immobilized protein A surface. Recombinant human Factor IX (rhFIX, Genetics Institute) at 49 nM was used and measurements performed in the presence of 5 mM Ca²⁺.

[2] = molecular target: T2, Recombinant human Factor IX (rhFIX, …); experiment: titration calorimetry
Description: (§2) The interactions between rhFIX and SB 249417 , BC2 and other humanized constructs were characterized by titration microcalorimetry, which measures binding interactions in solution from the intrinsic heat of binding. Nine injections of 106 uM FIX were made into the calorimeter containing 2 uM mAb SB 249417. Binding was detected in the first 4 injections as exothermic heats. At the last 5 injections the mAb binding sites were saturated with FIX and only background heats of mixing were observed. […] Nonlinear least squares analysis of the data yield the binding affinity.

[3] = molecular target: T2, Recombinant human Factor IX (rhFIX, …); experiment: isothermal titration calorimetry
Description: as §2

[4] = molecular target: T2, Recombinant human Factor IX (rhFIX, …); experiment: isothermal titration calorimetry, 25 C
Description: as §2

[5] = molecular target: T2, Recombinant human Factor IX (rhFIX, …); experiment: SPR (BIAcore), calculated from kinetics
Description: as §1

[6] = molecular target: T2, Recombinant human Factor IX (rhFIX, …); experiment: titration calorimetry, 37 C, 10 mM CaCl2
Description: as §2

[7] = molecular target: T2, Recombinant human Factor IX (rhFIX, …); experiment: titration microcalorimetry, 106 uM FIX injected into 2 uM mAb
Description: as §2

[8] = molecular target: T2, Recombinant human Factor IX (rhFIX, …); experiment: titration calorimetry, calculated for 25 C by the van't Hoff equation, 10 mM CaCl2
Description: as §2

[9] = molecular target: T2, Recombinant human Factor IX (rhFIX, …); experiment: SPR (BIAcore), antibody bound to immobilized protein A, rhFIX in solution, 5 mM Ca2+
Description: as §1

[10] = molecular target: T2, Recombinant human Factor IX (rhFIX, …); experiment: SPR (BIAcore), antibody bound to immobilized protein A, Factor IX in solution
Description: as §1

human Factor IX = human Factor IX (human, UniProt P00740 47-461); experiment: cell-based or functional assay
[11] = molecular target: IX K5A (Factor IX having a lysine to alanine substitution at residue 5) (UniProt P00740 47-461, K5A); experiment: SPR (BiaCore 2000), BC2 coupled to the chip, 200 nM construct, 5 mM CaCl2
Description: (§3) A library of chimeric constructs composed of sequences of Factor IX spliced into the framework of the homologous protein Factor VII was constructed and used to map the epitope for the Factor IX BC2 mAb. See Cheung et al., Thromb. Res. 80, 419-427 (1995). Binding was measured using a BiaCore 2000 surface plasmon resonance device. The BC2 antibody was coupled directly to the chip using the NHS/EDC reaction. Binding was measured by 2 min of contact time at 20 uL/min with 200 nM of each of the given constructs in 25 mM MOPS, pH 7.4, 0.15 M NaCl, 5 mM CaCl2. Dissociation was monitored for 3 min using the same buffer with no protein. No binding was detected to the wild type construct in the presence of 50 mM EDTA.

Plasma VII = molecular target: T1, Plasma VII; experiment: SPR (BiaCore 2000), BC2 coupled to the chip, construct injected, 5 mM CaCl2
Description: as §3

VII-A/IX = molecular target: T3, VII-A/IX (UniProt P08709 61-105; P00740 93-461, limits assumed); experiment: as above
T3 construct: The make-up is read from the label by analogy with IX-A/VII
Description: as §3

T2 sequence (P00740 47-461 limits assumed): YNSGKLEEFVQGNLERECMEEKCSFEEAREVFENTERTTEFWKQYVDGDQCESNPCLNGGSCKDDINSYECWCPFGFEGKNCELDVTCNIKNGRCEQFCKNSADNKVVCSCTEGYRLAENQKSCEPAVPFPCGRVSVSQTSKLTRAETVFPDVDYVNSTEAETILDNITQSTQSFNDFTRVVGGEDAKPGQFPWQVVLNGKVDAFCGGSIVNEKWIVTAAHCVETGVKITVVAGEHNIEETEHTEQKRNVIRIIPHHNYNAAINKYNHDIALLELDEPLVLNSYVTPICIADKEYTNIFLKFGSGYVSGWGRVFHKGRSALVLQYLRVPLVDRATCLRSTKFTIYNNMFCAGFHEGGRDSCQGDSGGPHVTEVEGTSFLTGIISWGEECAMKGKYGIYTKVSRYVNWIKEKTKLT
Sequence of human Factor IX (P00740 47-461 limits assumed): as above
Sequence of IX K5A (Factor IX having a lysine to alanine substitution at residue 5) (P00740 47-461 K51A): as the sequence (P00740 47-461 limits assumed) above, with K5A counted along it

| Binder | Molar Binding Ratio FIX/mAb [2] [FIX/mAb] | Kd [5] [nM] | Kd [6] [nM] | Kd [8] [nM] | koff [10] [s⁻¹] | kon [10] [M⁻¹ s⁻¹] | other results |
| --- | --- | --- | --- | --- | --- | --- | --- |
| B1 | 1.5 | 1.9 | 12 | 4 |  |  | Kd [1]: 2 nM; koff [1]: 0.0004 s⁻¹; kon [1]: 200000 M⁻¹ s⁻¹; Stoichiometry of Factor IX Binding [3]: 1.5 moles Factor IX : 1 mole mAb; Kd [4]: 4 nM; molar binding ratio at the equivalence point [7]: ~2 FIX per mAb; koff [9]: 0.00041 s⁻¹; kon [9]: 200000 M⁻¹ s⁻¹ |
| B2 |  | 1.1 |  |  | 0.00099 | 920000 |  |
| B3 | 1.7 | 1.1 to 2.3 | 7 | 3 | 0.00018 | 750000 |  |
| B4 | 1.8 | 1.5 | 9 | 4 | 0.0012 | 1.1e+06 |  |
| B5 | 1.9 | 3.7 to 5.1 | 12 | 6 | 0.0028 | 650000 |  |
| B6 |  | 0.8 |  |  | 0.00041 | 520000 |  |
| B7 | 1.4 | 1.9 | 20 | 10 | 0.00091 | 480000 | IC50, nM (aPTT clotting time of human plasma) (human Factor IX): ~50 nM; binding result [11]: binds; binding result (Plasma VII): no binding (tested: 200 nM); binding result (VII-A/IX): no binding (tested: 200 nM) |
| B8 |  | 1.3 |  |  | 0.0003 | 240000 |  |
